Literature values, collected in PMC3144249.

Tests used:
[1] = biological target: arrestin-1 (Mus musculus) (UniProt P20443)
[2] = biological target: arrestin-1 dimer (Mus musculus) (UniProt P20443)

Substance	Kd [1]	Kd [2]
arrestin-1 (from UniProt P20443)	57.5 µM	–
arrestin-1 dimer (from UniProt P20443)	–	63.1 µM
